# Patent US9969998B2, “Compositions of adenosine deaminase-2 (ADA2), variants thereof and methods of using same” (Halozyme, Inc., priority 2014, dated 2018)
# Legend:
# [1] = Adenosine deaminase (ADA) activity assay; format: biochemical
# Text: The adenosine deaminase (ADA; EC 3.5.4.4) activity of any of the ADA2 described herein, including a wildtype, variant or conjugate, can be assessed using methods well known in the art. ADA activity assays commonly measure, directly or indirectly, the rate of production a product of the enzymatic reaction. For example, the production of inosine or ammonia can be directly or indirectly measured. In other examples, the decrease of the substrate of the enzyme, e.g., adenosine or 2-deoxyadenosine, is measured. The decrease of the substrate, or the increase of the product, can be measured directly by spectrophotometry, or indirectly, by subsequent enzymatic or oxidation-reduction reactions that use chromogenic substrates or change the absorbance spectra of the reaction.
# For example, some commercially available adenosine deaminase (ADA) assays, such as ADA assay kits available from BQ Kits (San Diego, Calif.; Cat. No. BQ014EALD) and Diazyme (Poway, C A; Cat. No. DZ117A-K), utilize colorimetric substrate and spectrophotometric reading to determine the conversion of adenosine to inosine by ADA enzymes. In these assays, the production of inosine is detected by multi-step enzymatic reactions that produce a chromogenic dye. […] The change in absorbance at 556 nm (ΔA556) over time, at 37° C., is measured. […]
# [2] = test system: CT26 murine primary colon carcinoma; test: CT26 syngeneic tumor model; set-up: species or system BALB/c mice; settings: mouse
# Procedure: Exemplary of an animal tumor model that can be used to assess the effect of cancer treatment using ADA2 provided herein is the CT26 syngeneic tumor model. This model is created by subcutaneous injection of CT26 murine primary colon carcinoma (ATCC CRL-2638) cells into syngeneic BALB/c mice. The mice are staged until the tumor is established, then the agent used for treatment, such as any ADA2 provided herein or combination therapy including ADA2 treatment, are administered. Another example of an animal tumor model of pancreatic cancer involves the generation of tumors in animals using BxPC-3 pancreatic adenocarcinoma cells (see e.g. Von Hoff et al. (2011) J. Clin. Oncol., 29:4548-54). […]
# In other examples, tumor volume can be measured using an average of measurements of tumor diameter (D) obtained by caliper or ultrasound assessments. For example, tumor volume can be determined using VisualSonics Vevo 770 high-resolution ultrasound or other similar ultrasound. The volume can be determined from the formula V=D^3×π/6 (for diameter measured using calipers) or V=D^2×d×π/6 (for diameter measured using ultrasound where d is the depth or thickness). For example, caliper measurements can be made of the tumor length (l) and width (w) and tumor volume calculated as length×width^2×0.52. […] Tumor volumes can be determined by using available software (e.g., Amira 3.1 software; Mercury Computer Systems). […]
molecule,measurement,setting,value
"ADA2: wild-type human adenosine deaminase 2, mature form SEQ ID NO:5, homodimer (protein, listed as Homo sapiens, ADA2 mature protein) IDETRAHLLLKEKMMRLGGRLVLNTKEELANERLMTLKIAEMKEAMRTLIFPPSMHFFQAKHLIERSQVFNILRMMPKGAALHLHDIGIVTMDWLVRNVTYRPHCHICFTPRGIMQFRFAHPTPRPSEKCSKWILLEDYRKRVQNVTEFDDSLLRNFTLVTQHPEVIYTNQNVVWSKFETIFFTISGLIHYAPVFRDYVFRSMQEFYEDNVLYMEIRARLLPVYELSGEHHDEEWSVKTYQEVAQKFVETHPEFIGIKIIYSDHRSKDVAVIAESIRMAMGLRIKFPTVVAGFDLVGHEDTGHSLHDYKEALMIPAKDGVKLPYFFHAGETDWQGTSIDRNILDALMLNTTRIGHGFALSKHPAVRTYSWKKDIPIEVCPISNQVLKLVSDLRNHPVATLMATGHPMVISSDDPAMFGAKGLSYDFYEVFMGIGGMKADLRTLKQLAMNSIKYSTLLESEKNTFMEIWKKRWDKFIADVATK",Km of ADA2 for adenosine relative to that of ADA1,[1],approximately 100 times
same,tumor growth in vivo,[2],reduce tumor growth
